From patent publication US9725708B2, “Methods of modulating ubiquitin ligase activity” (Board of Supervisors of Louisiana State University and …, priority 2012, dated 2017)

Tests used:
E6APY533A = target: T1, E6APY533A (Homo sapiens, UniProt Q05086, Y556A); test: E6 rescue of 125I-polyubiquitin chain formation by E6APY533A; format: biochemical; conditions: 20 nM E6 protein
T1 construct: made in house; host or cells: E. coli
T1 sequence (Q05086 1-872 isoform Q05086-3 Y553A): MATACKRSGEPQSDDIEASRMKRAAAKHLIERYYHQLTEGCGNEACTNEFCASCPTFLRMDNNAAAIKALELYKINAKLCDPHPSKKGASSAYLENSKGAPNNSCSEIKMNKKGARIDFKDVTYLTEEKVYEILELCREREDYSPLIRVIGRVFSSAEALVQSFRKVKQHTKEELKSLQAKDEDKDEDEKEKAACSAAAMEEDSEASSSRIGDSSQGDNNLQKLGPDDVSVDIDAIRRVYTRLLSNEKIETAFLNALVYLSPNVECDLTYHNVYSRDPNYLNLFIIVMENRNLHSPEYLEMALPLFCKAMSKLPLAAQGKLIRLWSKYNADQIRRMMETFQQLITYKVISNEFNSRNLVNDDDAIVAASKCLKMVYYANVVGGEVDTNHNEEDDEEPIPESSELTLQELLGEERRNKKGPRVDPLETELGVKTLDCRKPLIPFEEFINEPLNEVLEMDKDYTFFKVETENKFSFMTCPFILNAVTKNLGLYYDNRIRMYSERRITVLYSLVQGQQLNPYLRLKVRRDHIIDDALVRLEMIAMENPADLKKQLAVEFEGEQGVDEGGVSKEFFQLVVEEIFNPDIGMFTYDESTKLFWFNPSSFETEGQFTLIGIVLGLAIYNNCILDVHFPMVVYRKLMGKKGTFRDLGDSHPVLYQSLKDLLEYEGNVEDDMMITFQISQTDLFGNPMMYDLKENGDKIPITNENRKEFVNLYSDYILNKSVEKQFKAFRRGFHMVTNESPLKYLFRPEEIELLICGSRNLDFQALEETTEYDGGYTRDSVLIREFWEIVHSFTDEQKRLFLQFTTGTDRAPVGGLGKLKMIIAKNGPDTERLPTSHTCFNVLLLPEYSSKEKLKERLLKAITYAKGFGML
Protocol: (§1) E6AP-catalyzed ^125I-Ubiquitin Conjugation Assay: The E3 ligase activity of recombinant E6AP ligase was quantitated in kinetic assays under initial velocity conditions (Ronchi et al., (2013) J. Biol. Chem. 288, 10349-10360, Ronchi & Haas (2012) Methods Mol. Biol. 832: 197-218). Rates of E6AP-catalyzed ^125I-polyubiquitin chain formation were measured at 37° C. in incubations of 25-μl final volume containing 50 mM Tris-HCl (pH 7.5), 1 mM ATP, 10 mM MgCl2, 1 mM DTT, 10 mM creatine phosphate, 1 IU of creatine phosphokinase, 5 μM ^125I-ubiquitin (approximately 1.5×10^4 cpm/pmol), 50 nM human Uba1, and the indicated concentrations of UbcH7 and E6AP ligase (Siepmann et al., (2003) J. Biol. Chem. 278: 9448-9457; Baboshina et al., (2001) J. Biol. Chem. 276: 39428-39437). […]
(§2) Polyubiquitin chain formation was measured by excising lanes between the top of the resolving gel and the top of the stacker gel, representing anchored and free ^125I-polyubiquitin chains, respectively, and quantitating associated ^125I-ubiquitin by γ-counting. Absolute rates of ^125I-polyubiquitin chain formation were calculated from the associated radioactivity and the corrected specific radioactivity for ^125I-ubiquitin. Datum points represent single assay determinations, and complete data sets were evaluated by non-linear regression analysis using GraFit version 5.0 (Erithicus). […]

E6APD543A = target: T2, E6APD543A (Homo sapiens, UniProt Q05086, D566A); test: E6 rescue of 125I-polyubiquitin chain formation by E6APD543A; format: biochemical; conditions: 20 nM E6 protein
T2 construct: made in house; host or cells: E. coli
T2 sequence (Q05086 1-872 isoform Q05086-3 D563A): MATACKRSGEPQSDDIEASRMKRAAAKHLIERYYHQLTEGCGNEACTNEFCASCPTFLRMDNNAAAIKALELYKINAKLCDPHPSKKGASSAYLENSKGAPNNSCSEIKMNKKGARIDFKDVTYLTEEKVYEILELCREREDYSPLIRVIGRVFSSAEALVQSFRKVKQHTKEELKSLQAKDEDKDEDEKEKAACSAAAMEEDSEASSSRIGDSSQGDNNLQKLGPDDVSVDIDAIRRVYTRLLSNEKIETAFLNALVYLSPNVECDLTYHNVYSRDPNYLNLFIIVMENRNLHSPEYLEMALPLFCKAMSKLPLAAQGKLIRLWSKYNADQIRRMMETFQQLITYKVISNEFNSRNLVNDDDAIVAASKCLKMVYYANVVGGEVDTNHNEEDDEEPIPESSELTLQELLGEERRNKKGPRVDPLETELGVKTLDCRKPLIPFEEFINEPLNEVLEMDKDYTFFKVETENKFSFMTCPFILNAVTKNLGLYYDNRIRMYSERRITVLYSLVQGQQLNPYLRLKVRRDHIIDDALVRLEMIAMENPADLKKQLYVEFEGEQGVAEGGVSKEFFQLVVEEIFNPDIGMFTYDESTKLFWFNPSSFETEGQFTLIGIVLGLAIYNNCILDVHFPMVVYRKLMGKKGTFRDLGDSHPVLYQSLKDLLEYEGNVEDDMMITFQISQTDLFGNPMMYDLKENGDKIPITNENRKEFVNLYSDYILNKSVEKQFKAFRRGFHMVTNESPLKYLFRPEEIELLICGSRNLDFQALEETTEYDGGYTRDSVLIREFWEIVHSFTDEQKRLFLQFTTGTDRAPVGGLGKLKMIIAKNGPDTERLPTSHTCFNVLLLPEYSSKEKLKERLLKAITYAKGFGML
Protocol: as §1, §2

E6AP ligase = E6AP ligase (Homo sapiens, UniProt Q05086); conditions: surface plasmon resonance, Zanier et al. 2005; cited from earlier work

B1: E6 protein: recombinant human papilloma virus 16 E6 protein, 158 amino acids (protein)
chain: MHQKRTAMFQDPQERPRKLPQLCTELQTTIHDIILECVYCKQQLLRREVYDFAFRDLCIVYRDGNPYAVCDKCLKFYSKISEYRHYCYSLYGTTLEQQYNKPLCDLLIRCINCQKPLCPEEKQRHLDKKQRFHNIRGRWTGRCMSCCRSSRTRRETQL
increase in rate (E6APY533A): 8 fold | effect on rate (E6APD543A): no enhancement in rate | Kd (E6AP ligase): 4 µM
